According to publication PMC10175261:

Experiments:
[1] = target: PriA;PriB N-term Arg44Ala LD (Escherichia coli;Escherichia coli, UniProt P17888;P07013 1-732;1-104+1-104, |R44A;internal_change); settings: protein: recombinant;recombinant; tags: N-terminal His;; copies: 1;1; label: 5'-32P on 3L-98 (strand 2); fork 1:2 1:3; ssDNA lagging arm (strand 2)
[2] = target: PriA;PriB C-term Arg44Ala LD (Escherichia coli;Escherichia coli, UniProt P17888;P07013 1-732;1-104+1-104, |R44A;internal_change); settings: protein: recombinant;recombinant; tags: N-terminal His;; copies: 1;1; label: 5'-32P on 3L-98 (strand 2); fork 1:2 1:3; ssDNA lagging arm (strand 2)
[3] = target: PriA;PriB (Escherichia coli;Escherichia coli, UniProt P17888;P07013 1-732;1-104, |); settings: protein: recombinant;recombinant; tags: N-terminal His;none; copies: 1;2; label: 5'-32P on 3L-98 (strand 2); fork 1:2 1:3; ssDNA lagging arm (strand 2)
[4] = target: PriA CRR triple variant (Escherichia coli, UniProt P17888 1-732, D438A;T482A;H483A); settings: protein: recombinant; tags: N-terminal His; label: 5'-32P on 3L-98 (strand 2); fork 1:2 1:3; ssDNA lagging arm (strand 2)
[5] = target: PriA Asp438Ala (Escherichia coli, UniProt P17888 1-732, D438A); settings: protein: recombinant; tags: N-terminal His; label: 5'-32P on 3L-98 (strand 2); fork 1:2 1:3; ssDNA lagging arm (strand 2)
[6] = target: PriA His483Ala (Escherichia coli, UniProt P17888 1-732, H483A); settings: protein: recombinant; tags: N-terminal His; label: 5'-32P on 3L-98 (strand 2); fork 1:2 1:3; ssDNA lagging arm (strand 2)
[7] = target: PriA Thr482Ala (Escherichia coli, UniProt P17888 1-732, T482A); settings: protein: recombinant; tags: N-terminal His; label: 5'-32P on 3L-98 (strand 2); fork 1:2 1:3; ssDNA lagging arm (strand 2)

B1: Fork 1 (structured_DNA)
DNA 1: GCAAGCCTTCTACAGGTCGACCGTCCATGGCGACTCGAGACCGCAATACGGATAAGGGCTGAGCACGCCGACGAACATTCACCACGCCAGACCACGTA
DNA 2: GACTATCTACGTCCGAGGCTCGCGCCGCAGACTCATTTAGCCCTTATCCGTATTGCGGTCTCGAGTCGCCATGGACGGTCGACCTGTAGAAGGCTTGC
DNA 3: TACGTGGTCTGGCGTGGTGAATGTTCGTCGGCGTGCTC
- binding result [1]: binds
- binding result [2]: binds
- binding result [3]: binds
- binding signal [4]: 95.8 ± 3.1 % fork shifted
- binding signal [5]: 95 ± 1.9 % fork shifted
- binding signal [6]: 92.2 ± 3.7 % fork shifted
- binding signal [7]: 91.3 ± 6.5 % fork shifted
